Results reported in paper PMC5389416 (Journal of molecular biology, 2017).

Columns and labels:
Assay in all cases: HDX-MS
[1] = molecular target: Murine dimerization domain p50(248-350)/RelA(190-321) (mouse, UniProt P25799 248-350; Q04207 190-321)
[2] = molecular target: Murine RelA(19-321) (mouse, UniProt Q04207 19-321)
[3] = molecular target: T1, Murine N-terminal hexahistidine-p50(39-350) (mouse, UniProt P25799 39-350)
T1 sequence (looked up): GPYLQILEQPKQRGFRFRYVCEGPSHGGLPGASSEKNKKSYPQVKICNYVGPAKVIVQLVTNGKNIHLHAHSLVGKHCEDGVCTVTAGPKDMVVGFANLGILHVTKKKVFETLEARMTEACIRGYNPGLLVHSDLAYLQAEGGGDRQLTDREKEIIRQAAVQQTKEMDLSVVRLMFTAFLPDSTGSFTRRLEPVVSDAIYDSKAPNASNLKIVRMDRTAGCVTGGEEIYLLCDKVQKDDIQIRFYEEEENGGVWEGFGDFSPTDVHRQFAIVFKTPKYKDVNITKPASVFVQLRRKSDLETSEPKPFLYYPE

Measured: binding result

Sequence of Murine RelA(19-321) (Q04207 19-321): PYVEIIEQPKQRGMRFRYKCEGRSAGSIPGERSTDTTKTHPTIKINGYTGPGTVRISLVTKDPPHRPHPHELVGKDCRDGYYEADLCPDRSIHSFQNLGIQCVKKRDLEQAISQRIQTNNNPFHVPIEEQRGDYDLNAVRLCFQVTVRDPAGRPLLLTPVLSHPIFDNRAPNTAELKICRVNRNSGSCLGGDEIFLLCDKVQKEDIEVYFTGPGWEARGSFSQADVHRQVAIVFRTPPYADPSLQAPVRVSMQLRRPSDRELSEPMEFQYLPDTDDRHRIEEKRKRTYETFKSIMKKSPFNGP
Sequence of Murine dimerization domain p50(248-350)/RelA(190-321) (Q04207 190-321, one chain of several): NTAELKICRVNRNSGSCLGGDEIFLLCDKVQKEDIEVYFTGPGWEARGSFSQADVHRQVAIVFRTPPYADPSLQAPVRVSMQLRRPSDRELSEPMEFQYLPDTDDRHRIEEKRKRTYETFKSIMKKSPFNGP

B1: Homo sapiens IκBα(67-287) (domain or fragment, human, UniProt P25963 67-287, looked up)
chain: KQQLTEDGDSFLHLAIIHEEKALTMEVIRQVKGDLAFLNFQNNLQQTPLHLAVITNQPEIAEALLGAGCDPELRDFRGNTPLHLACEQGCLASVGVLTQSCTTPHLHSILKATNYNGHTCLHLASIHGYLGIVELLVSLGADVNAQEPCNGRTALHLAVDLQNPDLVSLLLKCGADVNRVTYQGYSPYQLTWGRPSTRIQQQLGQLTLENLQMLPESEDEE
binds: [1] | [2] | [3]
